Source: article PMC9472817, “Structural and functional characterisation of a stable, broad-specificity multimeric sialidase from the oral pathogen Tannerella forsythia” (Biochemical Journal, 2022)

Target: NanH sialidase of Tannerella forsythia (wild type) (Tannerella forsythia 92A.2)
Assay: SEC-MALS; NanH at 0.5 and 3.0 mg/ml on Superdex S200 10/300 in 50 mM sodium phosphate, 200 mM NaCl pH 7.4, ~20°C; self-association

NanH sialidase of Tannerella forsythia (wild type) (enzyme)
percent of the protein as dimer: 90%
stoichiometry N: 2
